Test results published in publication PMC7082302.
“And” between values parts separate entries of the source, which are not always exact repeats. Equal values may be shown once.

Columns and labels:
Experiment in all cases: SEC; analytical SEC, Superdex 200 Increase 10/300 GL, buffer W (100 mM Tris-HCl pH 8.0, 150 mM NaCl, 2.5 mM EDTA); protein solutions from the two AEC elution peaks; oligomeric state from the elution volume by the column's calibration
[1] = molecular target: Chlamydomonas reinhardtii truncated hemoglobin THB11, full length (Chlamydomonas reinhardtii)
[2] = molecular target: THB11-C (THB11 lacking the C-terminal 225 residues) (Chlamydomonas reinhardtii)
[3] = molecular target: THB11-N (THB11 lacking the N-terminal 41 amino acids) (Chlamydomonas reinhardtii)

Chlamydomonas reinhardtii truncated hemoglobin THB11, full length (natural protein)
stoichiometry N [1]: 3 and 7

THB11-C (THB11 lacking the C-terminal 225 residues) (domain or fragment)
stoichiometry N [2]: 3

THB11-N (THB11 lacking the N-terminal 41 amino acids) (domain or fragment)
stoichiometry N [3]: 3 and 7
